From publication PMC5531834

Experiments:
8N-Gag (Δp6) (HIV-1) [1] = assay: FCS Cy5 quenching; settings: 20 mM Tris-HCl pH 7.5, 0.2 M NaCl (varied in salt titrations), 5 mM MgCl2, 1 uM ZnCl2, 0.1 mM PMSF, 1 mM BME, 0.05% Tween 20; 15 nM RNA; overnight 4 C, FCS at …
[2] = tested on: WT-Gag (HIV-1 Δp6 Gag) (HIV-1); assay: FCS Cy5 quenching; settings: 20 mM Tris-HCl pH 7.5, 0.2 M NaCl (varied in salt titrations), 5 mM MgCl2, 1 uM ZnCl2, 0.1 mM PMSF, 1 mM BME, 0.05% Tween 20; 15 nM RNA; overnight 4 C, FCS at …
8N-Gag (Δp6) (HIV-1) [3] = assay: FCS Cy5 quenching; settings: 20 mM Tris-HCl pH 7.5, 0.2 M NaCl (varied in salt titrations), 5 mM MgCl2, 1 uM ZnCl2, 0.1 mM PMSF, 1 mM BME, 0.05% Tween 20; 15 nM RNA; overnight 4 C, FCS at …; remark: listed apart in the source
8N-Gag (Δp6) (HIV-1) [4] = assay: FCS Cy5 quenching, competition; settings: 20 mM Tris-HCl pH 7.5, 0.2 M NaCl (varied in salt titrations), 5 mM MgCl2, 1 uM ZnCl2, 0.1 mM PMSF, 1 mM BME, 0.05% Tween 20; 15 nM RNA; overnight 4 C, FCS at …
[5] = tested on: WT-Gag (HIV-1 Δp6 Gag) (HIV-1); assay: FCS Cy5 quenching, competition; settings: 20 mM Tris-HCl pH 7.5, 0.2 M NaCl (varied in salt titrations), 5 mM MgCl2, 1 uM ZnCl2, 0.1 mM PMSF, 1 mM BME, 0.05% Tween 20; 15 nM RNA; overnight 4 C, FCS at …
[6] = target: Gag (Human immunodeficiency virus 1) (UniProt O93182); settings: cited from earlier work
[7] = tested on: WT-Gag (HIV-1 Δp6 Gag) (HIV-1); assay: FCS Cy5 quenching; settings: 20 mM Tris-HCl pH 7.5, 0.2 M NaCl (varied in salt titrations), 5 mM MgCl2, 1 uM ZnCl2, 0.1 mM PMSF, 1 mM BME, 0.05% Tween 20; 15 nM RNA; overnight 4 C, FCS at …; remark: listed apart in the source

Sequence of Gag (O93182 2-500): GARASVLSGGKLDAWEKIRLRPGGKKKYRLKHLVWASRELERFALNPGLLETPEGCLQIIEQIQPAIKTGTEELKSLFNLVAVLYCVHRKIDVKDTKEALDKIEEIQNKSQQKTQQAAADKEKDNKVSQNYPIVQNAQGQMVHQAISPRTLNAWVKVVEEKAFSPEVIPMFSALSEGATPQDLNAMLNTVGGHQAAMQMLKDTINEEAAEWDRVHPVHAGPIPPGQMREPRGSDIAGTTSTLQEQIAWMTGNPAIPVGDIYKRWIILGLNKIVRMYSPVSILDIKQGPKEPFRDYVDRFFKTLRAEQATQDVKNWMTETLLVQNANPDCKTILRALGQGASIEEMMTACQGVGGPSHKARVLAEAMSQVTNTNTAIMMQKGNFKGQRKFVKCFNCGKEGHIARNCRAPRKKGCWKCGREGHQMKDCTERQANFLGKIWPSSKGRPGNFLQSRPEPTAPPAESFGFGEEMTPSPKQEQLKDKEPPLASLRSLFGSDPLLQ

Row | Substance | Kd (8N-Gag (Δp6) (HIV-1) [1]) | Kd [2] | Kd (8N-Gag (Δp6) (HIV-1) [3]) | Kd (8N-Gag (Δp6) (HIV-1) [4]) | Kd [5] | Kd [6] | Kd [7]
1 | GRPE RNA | 145 nM | 44.2 nM | > 1000 nM | 154 nM | 315 nM |  | 
2 | Gag (from UniProt O93182) |  |  |  |  |  | 10000 nM | 
3 | HIV Ψ1 (monomeric HIV-1 Ψ RNA) | 60 nM | 21.4 nM |  | 60 nM | 53.3 nM |  | 26 nM
4 | HIV Ψ2 (dimeric HIV-1 Ψ RNA) | 43.2 nM | 20.3 nM | > 1000 nM | 54.7 nM | 37 nM |  | 
5 | MoMLV Ψ RNA | 59.8 nM | 25.9 nM |  | 59 nM | 119 nM |  | 
